From publication PMC9944232

Columns and labels:
[1] = target: AIFΔ101 D489A/K518A (Homo sapiens, UniProt O95831 102-613, D489A;K518A); experiment: ITC; binary; ITC: 50 mM potassium phosphate pH 7.4, 15 °C (25 °C with CypA); EMSA: same buffer, 25 °C, 30 min, 2% agarose; AFM on mica at room temperature; conditions: protein: recombinant; tags: N-terminal His6; blunt
[2] = target: AIFΔ101 K510A/K518A (Homo sapiens, UniProt O95831 102-613, K510A;K518A); experiment: as above; conditions: protein: recombinant; tags: N-terminal His6; blunt
Sequence of AIFΔ101 K510A/K518A (O95831 102-613 K510A/K518A): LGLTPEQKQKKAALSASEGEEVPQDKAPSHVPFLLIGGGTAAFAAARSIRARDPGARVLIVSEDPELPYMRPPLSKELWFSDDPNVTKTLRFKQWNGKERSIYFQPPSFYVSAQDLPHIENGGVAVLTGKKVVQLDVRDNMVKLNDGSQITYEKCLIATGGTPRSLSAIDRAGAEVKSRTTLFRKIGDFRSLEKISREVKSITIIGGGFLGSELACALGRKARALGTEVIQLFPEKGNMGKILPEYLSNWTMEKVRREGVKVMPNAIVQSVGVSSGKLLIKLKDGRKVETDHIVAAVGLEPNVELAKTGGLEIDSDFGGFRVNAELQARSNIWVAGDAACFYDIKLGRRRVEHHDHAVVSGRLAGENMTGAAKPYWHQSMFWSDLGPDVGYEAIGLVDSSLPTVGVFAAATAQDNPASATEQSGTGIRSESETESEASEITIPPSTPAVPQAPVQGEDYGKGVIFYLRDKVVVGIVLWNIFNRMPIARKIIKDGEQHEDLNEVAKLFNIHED

[3] = target: AIFΔ101 WT (Homo sapiens, UniProt O95831 102-613); experiment: ITC; binary, no added metal; 15 °C; ITC: 50 mM potassium phosphate pH 7.4, 15 °C (25 °C with CypA); EMSA: same buffer, 25 °C, 30 min, 2% agarose; AFM on mica at room temperature; conditions: protein: recombinant; tags: N-terminal His6; blunt
Sequence of AIFΔ101 WT (O95831 102-613, stated change not applied): as the sequence (O95831 102-613 K510A/K518A) above, with A409K, A417K counted along it

[4] = target: AIFΔ101 WT;CypA (Homo sapiens;Homo sapiens, UniProt O95831;P62937 102-613;1-165, |); experiment: ITC; dsDNA titrated into AIF:CypA 1:1; negative cooperativity; ITC: 50 mM potassium phosphate pH 7.4, 15 °C (25 °C with CypA); EMSA: same buffer, 25 °C, 30 min, 2% agarose; AFM on mica at room temperature; conditions: protein: recombinant;recombinant; tags: N-terminal His6;N-terminal His6; copies: 1;1; blunt
Sequence of AIFΔ101 WT;CypA (O95831 102-613, stated change not applied, chain 1 of 2): as the sequence (O95831 102-613 K510A/K518A) above, with A409K, A417K counted along it
Sequence of AIFΔ101 WT;CypA (P62937 whole entry, stated change not applied, chain 2 of 2): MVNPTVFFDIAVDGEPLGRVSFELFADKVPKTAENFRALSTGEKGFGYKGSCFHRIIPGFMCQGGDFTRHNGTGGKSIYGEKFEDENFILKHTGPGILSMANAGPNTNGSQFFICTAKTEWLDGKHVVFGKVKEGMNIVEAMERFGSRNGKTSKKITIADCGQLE

[5] = target: AIFΔ101 WT;Histone H2AX (Homo sapiens;Homo sapiens, UniProt O95831;P16104 102-613;1-143, |); experiment: ITC; dsDNA titrated into AIF:H2AX 1:1; positive cooperativity; ITC: 50 mM potassium phosphate pH 7.4, 15 °C (25 °C with CypA); EMSA: same buffer, 25 °C, 30 min, 2% agarose; AFM on mica at room temperature; conditions: protein: recombinant;recombinant; tags: N-terminal His6;N-terminal His6 (PreScission site); copies: 1;1; blunt
Sequence of AIFΔ101 WT;Histone H2AX (O95831 102-613, stated change not applied, chain 1 of 2, other chains not shown): as the sequence (O95831 102-613 K510A/K518A) above, with A409K, A417K counted along it

[6] = target: Histone H2AX (Homo sapiens, UniProt P16104 1-143); experiment: ITC; binary; stronger than CypA; value in Table S4 not in material; ITC: 50 mM potassium phosphate pH 7.4, 15 °C (25 °C with CypA); EMSA: same buffer, 25 °C, 30 min, 2% agarose; AFM on mica at room temperature; conditions: protein: recombinant; tags: N-terminal His6 (PreScission site); blunt
[7] = target: AIFΔ101 WT;CypA;Histone H2AX (Homo sapiens;Homo sapiens;Homo sapiens, UniProt O95831;P62937;P16104 102-613;1-165;1-143, ||); experiment: ITC; dsDNA titrated into AIF:CypA with varied H2AX; intrinsic Kd from cooperativity fit, alpha 9.7; ITC: 50 mM potassium phosphate pH 7.4, 15 °C (25 °C with CypA); EMSA: same buffer, 25 °C, 30 min, 2% agarose; AFM on mica at room temperature; conditions: protein: recombinant;recombinant;recombinant; tags: N-terminal His6;N-terminal His6;N-terminal His6 (PreScission site); copies: 1;1;1; blunt
Sequence of AIFΔ101 WT;CypA;Histone H2AX (O95831 102-613, stated change not applied, chain 1 of 3, other chains not shown): as the sequence (O95831 102-613 K510A/K518A) above, with A409K, A417K counted along it
Sequence of AIFΔ101 WT;CypA;Histone H2AX (P62937 whole entry, stated change not applied, chain 2 of 3, other chains not shown): as the sequence (P62937 whole entry, stated change not applied, chain 2 of 2) above

Sequence of AIFΔ101 D489A/K518A (O95831 102-613 D489A/K518A): as the sequence (O95831 102-613 K510A/K518A) above, with D388A, A409K counted along it

B1: 15-bp dsDNA (dsDNA)
DNA 1: GGTTAGTTATGCGCG
DNA 2: CGCGCATAACTAACC
**Q.** Which Kd [1] does the source give for B1 here?
**A.** 0.5 µM

**Q.** And the Kd [2]?
**A.** 0.5 µM

**Q.** What about the Kd [3] of the same binder?
**A.** 2.9 µM

**Q.** Does B1 bind [4]?
**A.** binds

**Q.** Does B1 bind [5]?
**A.** binds

**Q.** Does B1 bind [6]?
**A.** binds

**Q.** What about the Kd [7] of the same binder?
**A.** 9.1 µM
